Measured values from US20230287120A1 (ALLOGENE THERAPEUTICS, published 2023).
Each block holds one binder with its values, some of them ahead of it.

What was measured:
EGF1-EGF6 = biological target: T1, EGF1-EGF6; assay: flow cytometry on CHO cells with the HA tagged DLL3 construct, PE anti-mouse IgG
T1 construct: also called Human DLL3 EGF1-EGF6, N-terminal HA tag, on CHO cells
T1 single chain: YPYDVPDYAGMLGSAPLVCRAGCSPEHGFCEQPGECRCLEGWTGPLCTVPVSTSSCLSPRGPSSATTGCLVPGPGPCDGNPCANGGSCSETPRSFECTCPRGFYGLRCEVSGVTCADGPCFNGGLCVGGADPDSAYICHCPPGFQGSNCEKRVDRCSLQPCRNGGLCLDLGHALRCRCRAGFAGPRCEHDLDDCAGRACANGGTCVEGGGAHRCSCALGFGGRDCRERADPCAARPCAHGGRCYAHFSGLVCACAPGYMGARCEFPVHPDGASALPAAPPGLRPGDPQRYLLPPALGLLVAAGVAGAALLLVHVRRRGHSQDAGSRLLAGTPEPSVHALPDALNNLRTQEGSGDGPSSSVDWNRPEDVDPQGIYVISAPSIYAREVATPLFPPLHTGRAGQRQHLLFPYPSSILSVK
Procedure: (§1) The samples were analyzed by flow cytometry. […] Signals from the PE channel are shown on the x-axis and counts are shown on the y-axis.

EGF2-EGF6 = biological target: T2, EGF2-EGF6; assay: as above
T2 construct: also called Human DLL3 EGF2-EGF6, N-terminal HA tag, on CHO cells
T2 single chain: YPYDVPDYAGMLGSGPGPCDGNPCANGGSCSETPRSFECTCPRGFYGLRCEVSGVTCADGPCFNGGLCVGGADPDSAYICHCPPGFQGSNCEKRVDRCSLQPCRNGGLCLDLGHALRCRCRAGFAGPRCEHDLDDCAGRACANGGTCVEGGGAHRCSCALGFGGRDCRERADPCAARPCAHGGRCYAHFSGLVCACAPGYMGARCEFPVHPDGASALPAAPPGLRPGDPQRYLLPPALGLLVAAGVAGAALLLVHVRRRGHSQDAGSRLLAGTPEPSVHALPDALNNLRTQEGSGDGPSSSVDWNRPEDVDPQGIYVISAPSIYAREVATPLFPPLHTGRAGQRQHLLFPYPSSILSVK
Procedure: as §1

EGF6 = biological target: T3, EGF6; assay: as above
T3 construct: also called Human DLL3 EGF6, N-terminal HA tag, on CHO cells
T3 single chain: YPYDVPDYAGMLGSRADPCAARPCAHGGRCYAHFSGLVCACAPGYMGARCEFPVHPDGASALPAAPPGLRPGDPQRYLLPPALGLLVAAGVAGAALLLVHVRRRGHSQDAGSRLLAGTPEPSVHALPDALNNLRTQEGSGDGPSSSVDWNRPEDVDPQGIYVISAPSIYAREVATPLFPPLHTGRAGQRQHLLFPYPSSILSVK
Procedure: as §1

EGF5-EGF6 = biological target: T4, EGF5-EGF6; assay: as above
T4 construct: also called Human DLL3 EGF5-EGF6, N-terminal HA tag, on CHO cells
T4 single chain: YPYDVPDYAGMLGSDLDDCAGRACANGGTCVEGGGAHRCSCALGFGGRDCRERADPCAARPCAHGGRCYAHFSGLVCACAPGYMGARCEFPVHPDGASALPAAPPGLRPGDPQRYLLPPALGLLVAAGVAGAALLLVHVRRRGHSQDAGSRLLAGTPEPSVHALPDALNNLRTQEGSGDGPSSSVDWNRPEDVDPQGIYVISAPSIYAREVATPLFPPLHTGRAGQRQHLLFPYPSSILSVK
Procedure: as §1

EGF3-EGF6 = biological target: T5, EGF3-EGF6; assay: as above
T5 construct: also called Human DLL3 EGF3-EGF6, N-terminal HA tag, on CHO cells
T5 single chain: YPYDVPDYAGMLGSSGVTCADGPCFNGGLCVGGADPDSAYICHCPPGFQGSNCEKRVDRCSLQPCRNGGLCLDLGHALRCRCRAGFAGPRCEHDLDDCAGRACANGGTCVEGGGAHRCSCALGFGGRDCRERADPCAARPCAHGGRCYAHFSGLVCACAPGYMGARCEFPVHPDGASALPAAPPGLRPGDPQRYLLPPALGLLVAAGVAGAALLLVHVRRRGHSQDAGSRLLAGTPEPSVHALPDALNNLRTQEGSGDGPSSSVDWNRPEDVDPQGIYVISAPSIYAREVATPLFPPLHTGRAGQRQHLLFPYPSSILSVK
Procedure: as §1

EGF4-EGF6 = biological target: T6, EGF4-EGF6; assay: as above
T6 construct: also called Human DLL3 EGF4-EGF6, N-terminal HA tag, on CHO cells
T6 single chain: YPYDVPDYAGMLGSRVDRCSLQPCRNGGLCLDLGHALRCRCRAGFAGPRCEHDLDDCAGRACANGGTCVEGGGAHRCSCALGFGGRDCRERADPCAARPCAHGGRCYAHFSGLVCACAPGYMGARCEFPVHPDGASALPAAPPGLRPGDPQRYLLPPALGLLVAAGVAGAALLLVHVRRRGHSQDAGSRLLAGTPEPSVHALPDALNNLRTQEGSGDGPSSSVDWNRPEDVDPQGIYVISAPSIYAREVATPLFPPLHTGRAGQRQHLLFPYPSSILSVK
Procedure: as §1

DSL-EGF6 = biological target: T7, DSL-EGF6; assay: as above
T7 construct: also called Human DLL3 DSL-EGF6, N-terminal HA tag, on CHO cells
T7 single chain: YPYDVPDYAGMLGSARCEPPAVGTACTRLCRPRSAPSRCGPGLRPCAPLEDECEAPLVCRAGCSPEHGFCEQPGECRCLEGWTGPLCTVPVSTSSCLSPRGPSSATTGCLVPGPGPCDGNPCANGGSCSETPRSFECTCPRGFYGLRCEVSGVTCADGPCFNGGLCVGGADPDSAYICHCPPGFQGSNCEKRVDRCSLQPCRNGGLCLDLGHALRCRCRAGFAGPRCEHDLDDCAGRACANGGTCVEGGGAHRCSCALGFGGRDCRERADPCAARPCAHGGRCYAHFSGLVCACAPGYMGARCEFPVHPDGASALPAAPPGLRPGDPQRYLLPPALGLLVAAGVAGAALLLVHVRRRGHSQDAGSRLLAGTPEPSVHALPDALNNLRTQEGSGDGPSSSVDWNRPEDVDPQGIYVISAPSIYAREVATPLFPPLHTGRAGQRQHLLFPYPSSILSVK
Procedure: as §1

[1] = biological target: T8, human DLL3 extracellular domain (ECD) with C-terminal 8xHis tag and Avi tag (human, UniProt Q9NYJ7 27-492); assay: SPR (Biacore), 37 C; IgG captured on chip, human DLL3 ECD in solution; 1:1 Langmuir fit
T8 construct: extracellular domain; Expressed in Expi293, purified by IMAC and SEC; also called huDLL3; not shown: Avi tag
T8 sequence: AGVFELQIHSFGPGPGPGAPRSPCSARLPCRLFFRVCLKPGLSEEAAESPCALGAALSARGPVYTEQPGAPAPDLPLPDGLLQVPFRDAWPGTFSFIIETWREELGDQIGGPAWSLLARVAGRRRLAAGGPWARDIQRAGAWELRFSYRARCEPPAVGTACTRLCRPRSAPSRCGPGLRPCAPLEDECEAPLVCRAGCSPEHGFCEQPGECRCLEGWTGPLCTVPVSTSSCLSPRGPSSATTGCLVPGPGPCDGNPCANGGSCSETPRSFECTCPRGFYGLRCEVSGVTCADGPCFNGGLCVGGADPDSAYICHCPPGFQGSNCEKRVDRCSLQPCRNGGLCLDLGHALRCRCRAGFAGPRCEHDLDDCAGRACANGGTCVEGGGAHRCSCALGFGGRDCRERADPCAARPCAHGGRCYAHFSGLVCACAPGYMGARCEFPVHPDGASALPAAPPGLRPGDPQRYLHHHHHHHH

- binding result (EGF1-EGF6): no binding
- binding result (EGF2-EGF6): no binding
- binding result (EGF6): no binding
- binding result (EGF5-EGF6): no binding
- binding result (EGF3-EGF6): no binding
- binding result (EGF4-EGF6): no binding
- binding result (DSL-EGF6): binds
- Kd [1]: 7.76 nM
B1: anti-DLL3 antibody 5E12 (IgG) (antibody, V domains shown)
VH: EVQLVESGGGLVQPGGSLRLSCAASGFTFSSYDMHWVRQATGKGLEWVSAIGPAGDTYYPGSVKGRFTISRENAKNSLYLQMNSLRAGDTAVYYCARADPPYYYYGMDVWGQGTTVTVSS
VL: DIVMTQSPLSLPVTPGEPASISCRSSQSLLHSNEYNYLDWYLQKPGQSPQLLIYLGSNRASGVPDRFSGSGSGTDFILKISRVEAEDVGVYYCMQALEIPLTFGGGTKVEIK
notes: Full-length monoclonal antibody (IgG)

- binding result (EGF1-EGF6): binds
- binding result (EGF2-EGF6): binds
- binding result (EGF6): no binding
- binding result (EGF5-EGF6): no binding
- binding result (EGF3-EGF6): binds
- binding result (EGF4-EGF6): no binding
- binding result (DSL-EGF6): binds
- Kd [1]: 5.54 nM
B2: anti-DLL3 antibody 26C8 (IgG) (antibody, V domains shown)
VH: QVQLQESGPGLVKPSETLSLTCTVSDNSISNYYWSWIRQPPGKGLEWIAYIYYSGTTNYNPSLKSRVTISLDTSKNQFSLQLSSVTAADAAVYYCARVFHWGFAFDIWGQGTMVTVSS
VL: EIVLTQSPGTLSLSPGERATLSCRASQRVSNTYLAWYQQNPGQAPRLLIYGASSRATGIPDRFSGSGSGTDFTLTISRLEPEDFAVYYCQQYGTSPLTFGGGTKVEIK
notes: as for B1

- binding result (EGF1-EGF6): binds
- binding result (EGF2-EGF6): no binding
- binding result (EGF6): no binding
- binding result (EGF5-EGF6): no binding
- binding result (EGF3-EGF6): no binding
- binding result (EGF4-EGF6): no binding
- binding result (DSL-EGF6): binds
- Kd [1]: < 1.42 nM
B3: anti-DLL3 antibody 6D8 (IgG) (antibody, V domains shown)
VH: QITLKESGPTLVKPTQTLTLTCTFSGFSLSTRGVGVGWIRQPPGKALEWLALIYWNDDKRYSPSLQTRLTITKDTPKNQVVLTMTNMDPVDTATYYCARSNWGNWYFALWGRGTLVTVSS
VL: EIVLTQSPATLSLSPGERATLSCRASQSVSSYLAWYQQKPGQAPRLLIYDAFYRATGIPARFSGSGSGTDFTLTISSLEPEDFAVYYCQHRSNWPITFGQGTRLEIK
notes: as for B1
